{"source": "the nanobody polyreactivity screen of Harvey et al. (2022)"}
{"experiment": "yeast display, Sf9 membrane polyspecificity reagent, FACS + sequencing; frameworks hold sequencing errors", "how_it_was_run": "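Galactose induction of a Saccharomyces cerevisiae BJ5465 synthetic nanobody display library ran 36–48 hours. The cells were then stained for 1 hour at 4 °C with 10% biotinylated, detergent-solubilized Sf9 membrane reagent, pulled down on streptavidin microbeads and FACS-sorted into low and high (top ~1%) gates on expression and reagent-binding fluorescence. Labels for polyreactivity follow the gate of origin.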"}
{"sequence": "QVHLVESVGGLVQAGGSLRLSCAASGSIFYYNAMGWYRQAPGKERELVAAISSGGSTNYADSVKGRFTISRDNAKNTVYLQMNSLKPEDTAVYYCATGWSWYHPDYDYWGQGTQVTVSS", "polyreactivity (PSR sort gate)": "low polyreactivity"}
{"sequence": "QVHLVETGGGLVQAGGSLRLSCAASGFTFAYYAMGWYRQAPGKEREFVAVITWSGGDKYYADSVKGRFTISRDIAKNTVYLQMNSLKPVDTSVYYCNADAYRITRYGYDYWGQGTQVTVSS", "polyreactivity (PSR sort gate)": "high polyreactivity"}
{"sequence": "QVHLVETGGGLVQAGGSLRLSCGASGYIFSQYAMGCYRQAPGKERELVADITTSAGSTYYADSVKGRFTISRDNAKNTVYLQMNSVIPEDTAVYYCAADVYGHSYYDYDYWGQGTQVTVSS", "polyreactivity (PSR sort gate)": "low polyreactivity"}
{"sequence": "QVHLVVSGGGLVQAGGSLRLSCAASGRLLYKYAMGWNRQAPGKERELVAAISGSGGRTYYADSVKGRFTISRDNAKNTVYLQMNSLKPEDTAVYYCAAVHPFRHVLYDYWGQGTQVTVSS", "polyreactivity (PSR sort gate)": "low polyreactivity"}
{"sequence": "QVHPVESGGGLVQAGGSLRLSCAASGGILYRNAMGWYRQAPGKERELVAAISSRGGSTYYADSVKGRFTISRDNAKNTVYLQMNSLKPEDTAVYYCAVVNRSAQSLKYEYWGQGTQVTVSS", "polyreactivity (PSR sort gate)": "high polyreactivity"}
{"sequence": "QVHQQESGGGLMQAGGSQRLSCAASGSISYYSDMGRYRQAPGKEREFVAGIGYGTTTNYADSVKGRFTTSRDNAKNTVYLQMISMKPEDNAVYYCAAYQGNGYEFYYWGQGTQVTVRS", "polyreactivity (PSR sort gate)": "low polyreactivity"}
{"sequence": "QVHRGETGGGLVQAGGSLRLSCSASGLSFPHYAMGWYRQAPGKERDLVADINLSGGSNTYYADSVKGRFTISRDNAKNTVYLMMNSLKPEDTPVYDCNAVSWENWYHIMDYWGQGTQVTVSS", "polyreactivity (PSR sort gate)": "high polyreactivity"}
{"sequence": "QVHRVESGGRLVPAGGSLRLSCAASGFTFSVNAMGWYTPPPGKEMELVAAISSGGSTSYADSVKGRFTISRDNAKNTVYLQMNSLKPEDTAVYYCAAEYHSAGSLYTYSKYYHWGQGTQVTVSS", "polyreactivity (PSR sort gate)": "low polyreactivity"}
{"sequence": "QVHVVESGGGLVQAGGSLRLSCAASGFTFAKYAMGWYRQAPGKERELVAVITSSGGRTYYADSVKGRFTISRDNAKNTVYLQMNSLKPEDTAVYYCNAGKYVYATSQYDYWGQGTQVTVSS", "polyreactivity (PSR sort gate)": "high polyreactivity"}
{"sequence": "QVKHVESGGGLVQAGASLRLSCAASGSIFAYNAMGCYIQAPGKERELVATISRGGNTNYADSVKGRFTISRDNAKNSVYLQMNSLKPEDTAVYYCNVLGRDIDHEYGYWGQGTQVTVSS", "polyreactivity (PSR sort gate)": "high polyreactivity"}
{"sequence": "QVKLEESGGCLVQAGGSLRLSCAASGFTFEENAMGWYRQAPGKERELVAAINWSGGNTYYADSVKGRFTISRDNAKNTVYLQMNSLKPEDTAVYYCAADSPRYYYWVGPYYGYDYWGQGTQVTVSS", "polyreactivity (PSR sort gate)": "high polyreactivity"}
{"sequence": "QVKLEESGGGLVQAGGSLRLSCAASGRTFTTYSMGCYRQAPGKERELVAAISGSGGSTYYADSVKGRFTISRDNAKNSVYVQMNSLKPEDTAVYYCATAYYYHGGYYYPYDDYWGQGTQVTVSS", "polyreactivity (PSR sort gate)": "low polyreactivity"}
{"sequence": "QVKLEESGGGLVQAGGSLRLSCAASGSIFVVNAMGRYRPAPGKERELVDTITESGGSTYYADSVKGRFTISRDNAKNTVYLQMNSLKPEDTAVYYCAAYWHHKGDYWGQGTQVTVSS", "polyreactivity (PSR sort gate)": "low polyreactivity"}
{"sequence": "QVKLEESGGGLVQAGGSLRLTCAASGRIFYLYGMGWYRQATGKERELVAAIDRRGTRTYYADSVKGRFTISCDNAQTTFYLQMNSVKPEDTAVYYCAARFAAYRTYTSYDYWGQGTQVTVSS", "polyreactivity (PSR sort gate)": "high polyreactivity"}
{"sequence": "QVKLVDSGGGLVQAGGSLRLSCAASGFIFYSYDMGWYRQAPGKERELVATITSGDDTYYADSVKGRFTISRDNAKNTVYLQMNSQKPEDTAVGYWGQGTQVTVSS", "polyreactivity (PSR sort gate)": "low polyreactivity"}
{"sequence": "QVKLVDSGGGLVQAGGSLRLSCAASGRTFRYYTMGWYRQAPGTERELVAAITRNVGRTYYADSVKGRFTISRDNAKNTVYLQMNSLKPEDTAVYYCAAGTYDGGYHYDYWGQGTQLTVSS", "polyreactivity (PSR sort gate)": "high polyreactivity"}
{"sequence": "QVKLVEAGGGLVQAGGSLRFSCAASGNIFQGNARGWYREAPGKERELVAAITYSGAGTYYADSVKGRFTISRDNAKNSVYLQMNSLNPEDTAVYYSAADWYTFEYDYWGQGTQVTVSS", "polyreactivity (PSR sort gate)": "low polyreactivity"}
{"sequence": "QVKLVESAGGLVQAGGSLRLSCAASGRTFVGNAMGWYRQEPGKEREVVAAITSRTGSTYYADSVKGRFTISRDNAKNTGYLQMNSLKPEDTAVYYGATPYYQIVYSRKAYNFWGQGTQVTVSS", "polyreactivity (PSR sort gate)": "high polyreactivity"}
{"sequence": "QVKLVESAGGLVQAGGSLRLSCAASGSIFNPYDMGWYRQAPGKERELVAAIDWSGGSTYYADSVKGRFTISRDNAKNTVYLQMNSLKPEDTAVYYCNAESYQDTLFGADNDYDYWGQGTQVTVSS", "polyreactivity (PSR sort gate)": "low polyreactivity"}
{"sequence": "QVKLVESGGGIVQAGGSLRLSCAASGRIFYSNVMGWYRQAPGKERELVATISGSSGRTYADSVKGRFTISRDNAKNTVYLQMNSLKPEDTAVYYCAADSPSVWGYRYDYDYWGQGTQVTVSS", "polyreactivity (PSR sort gate)": "low polyreactivity"}
{"sequence": "QVKLVESGGGLFQAGGSLRLSCAASVSIFYGNAIVWYRQAPGKERELVAAISSRGTRTYYADSVKGRFTISRDNAKNTVYLQMNSLNPEATAVYYCAAADYRFYNGPYSRRWLYGYWGQGTQVTVSS", "polyreactivity (PSR sort gate)": "high polyreactivity"}
{"sequence": "QVKLVESGGGLVKAGGRLRLSCAASGSTFRKYTMGWYRQAPWKERELVAAITYRGDRTYYADSVKGRFTISRDNAKNNVYLQMNSLKQEDTAVYYCAAVYVRGDRYDYWGQGTQVTVSS", "polyreactivity (PSR sort gate)": "high polyreactivity"}
{"sequence": "QVKLVESGGGLVQAGGRLRLSCAASGFTFPSNAMVWYRHAPGKEREMVAAISSTDSTNYADSVMGRFTISRDNAKNTVYLQMNSLNPEDTAVYYCAKRYPRYRYNTRGNDYWGQGTQVTVSS", "polyreactivity (PSR sort gate)": "low polyreactivity"}
{"sequence": "QVKLVESGGGLVQAGGSLRISCAASGRTFGYNAMGWYRQAPGKERELVAGISGRTASTYYADSVKGRFTISRDNAKNTVYLQMNSLKPVDTEVYYCATQFGSIYRYDYWGQGTEVTVSS", "polyreactivity (PSR sort gate)": "high polyreactivity"}
{"sequence": "QVKLVESGGGLVQAGGSLRLSCAASGFTFALYSMGWYRQAPGKERELVAAITRRGGSTYYADSVKGRFTISRDNAKNTVYVQMNSLKPEDTAVYYCAKRERAIKVSRYDSHDYWGQGTQVTVSS", "polyreactivity (PSR sort gate)": "high polyreactivity"}
{"sequence": "QVKLVESGGGLVQAGGSLRLSCAASGFTFNANAMRWYRQAPGKERELVAAISLSGGRTYYADSVKGRFTISRDNAKNTVYLQMISLKPEDTAVYYCAASPDGSFRRFSRVVSGDYWGKGTQVTVSS", "polyreactivity (PSR sort gate)": "high polyreactivity"}
{"sequence": "QVKLVESGGGLVQAGGSLRLSCAASGFTFSGYDMGWYRQAPGKERELVAGISSGGVSTTYADSVKGRFTISRDNAKNTVYLQMNSLIPEDTAVYYCNAEWTSFDWGQGTQVTVSS", "polyreactivity (PSR sort gate)": "low polyreactivity"}
{"sequence": "QVKLVESGGGLVQAGGSLRLSCAASGFTFYTYAMGWYRQAPGKETELFAAITGSGGRTYYADSVKGRFTISRDNAKNTVYLKMHSLKPEYTSLYYCAALYVYRPRTPYGYWGQGTQVTVSS", "polyreactivity (PSR sort gate)": "high polyreactivity"}
{"sequence": "QVKLVESGGGLVQAGGSLRLSCAASGFTVYGYSMGWYRQEPGKERELVAAITSVGDTNYADSVKGRFTISRDNAKNNVYLQINSLKPEDTAVYYCKADPVYYFYWWTGDYWGQGTQETVSS", "polyreactivity (PSR sort gate)": "low polyreactivity"}
{"sequence": "QVKLVESGGGLVQAGGSLRLSCAASGFTYFINGMGWYRQAPGKERQLVAAIRSSGASTYYADSVKGRFTISRDNAKNTVYLQMNSLKPEDTAVYYCNARSSVCNSGADYDYWGQGTQVTVSS", "polyreactivity (PSR sort gate)": "low polyreactivity"}
{"sequence": "QVKLVESGGGLVQAGGSLRLSCAASGRIFIEYARGWYRQAPGKERELVASSTSSGGRTTYADSVKGRFTISRDNAKNTVYLQINSLKPEDTAVYYCNKDYYPRGHTRFGYWGVGTQVTVSS", "polyreactivity (PSR sort gate)": "low polyreactivity"}
{"sequence": "QVKLVESGGGLVQAGGSLRLSCAASGRIFRYYVMGWYRQAPGKERELVAAITSGGSTYYADSVKGRFTISRDNAKNTVYLQMNSLKPEDTAVYYCNVVGRYGSFRSAEMNYWGQGTQVTVSS", "polyreactivity (PSR sort gate)": "high polyreactivity"}
{"sequence": "QVKLVESGGGLVQAGGSLRLSCAASGRTFAWYTMGRYRQAPGKERALVAAISGSGGSTYYADSVKGRFTISRDNAKNTVYLQLNSLKPEDTDVYYCARRVDSYYCHTRYYYWGQGTQVTVSS", "polyreactivity (PSR sort gate)": "high polyreactivity"}
{"sequence": "QVKLVESGGGLVQAGGSLRLSCAASGRTFKYYAMGWYRQAPGKERELVAAISWSGGSTYYADSVMGRFTISRDNAKNTVYLQMNSLKPEDTAVYYCAAVRNYHGTWYDYWGQGTQVTVSS", "polyreactivity (PSR sort gate)": "high polyreactivity"}
{"sequence": "QVKLVESGGGLVQAGGSLRLSCAASGRTFPRYAMGWYRQAPGKERELVAVIYGGGTYYADSVKGRFTISRDNAKNTVYLQMNSLKPEDTSVYYCNARSYQSARFRGGYWGQGTQVTVSS", "polyreactivity (PSR sort gate)": "high polyreactivity"}
{"sequence": "QVKLVESGGGLVQAGGSLRLSCAASGSIFALYAMGWYRQAPGKEREFVARISWGGGRTYYADSVKGRFTISRDNAQNTVYLQMNSLKPEDTAVYYCNAERAGTYSYDYWGQGTQVTVSS", "polyreactivity (PSR sort gate)": "high polyreactivity"}
{"sequence": "QVKLVESGGGLVQAGGSLRLSCAASGSIFNTYVMGWYRQAPGKERELVAAITSSGGRTYYADSVKGRFTISRDNAKNTVYLQMNSLKPEDTAVYYCNTAQRWVGRNDYWGQGTQVTVSS", "polyreactivity (PSR sort gate)": "high polyreactivity"}
{"sequence": "QVKLVESGGGLVQAGGSLRLSCAASGSIFWSYAMGWYRQAPGKEREFVPSITGSGGTTTYADSVKGRFTISLDNAKNTVYVQMNSLKPEDTAVYYCNARLHGWYHVYYIYDYWGQGTQVTVSS", "polyreactivity (PSR sort gate)": "low polyreactivity"}
{"sequence": "QVKLVESGGGLVQAGGSLRLSCAASGSIFWYNAMGWYRQAPGKERELVAAIRWRGGSTYYADSVNGRFTISRDNAKNTVYLQMNSLKPEDTAVYYCAAQVYVSQMYTSYYYWGQGTQVTVSS", "polyreactivity (PSR sort gate)": "high polyreactivity"}
{"sequence": "QVKLVESGGGLVQAGGSLRLSCAASGSIFYTYAMGWYRPAPGKERELVAAISSGGSTDYADSVKGRFTISRDNAKNTVYLQMNSLKPEDTAVYYCAAVAVELASEYDYWGQGTQVTVSS", "polyreactivity (PSR sort gate)": "low polyreactivity"}
{"sequence": "QVKLVESGGGLVQAGGSLRLSCAASGSTFASYAMGWYRQDPGKQRELVAAITRSGGSSTYADSVKGRFTISRDNAKITVYLQMNSLKPEDTAVYYCAARYLYSYYVSYDYWGQGTQLTVSS", "polyreactivity (PSR sort gate)": "high polyreactivity"}
{"sequence": "QVKLVESGGGLVQAGGSLRLSCAASGSTFFIYTKGLYRQAPGKEREFVAAISWTGGRTYYADSVKGRFTISRDNAKNTVYLQMNSLKPEDTAVYYCAARYKYSSYDYWGQGTQVTVSS", "polyreactivity (PSR sort gate)": "high polyreactivity"}
{"sequence": "QVKLVESGGGLVQAGGSLRLSCAASGSTFPTNAMVCYRQAPGKERELVAGITEGGSSTYYADSVKGRFTISRDNAKNTVYLQMNSLKPEVTAVYYCAADVLWYGPFWVRQDDYWGQGTQVTVSS", "polyreactivity (PSR sort gate)": "high polyreactivity"}
